For the data set, the target named is polymerized microtubules.

B1: recombinant R293W mutant KIF3B motor domain (amino acids 1-365) with N-terminal 6x-Histidine tag (protein)
chain: MSKLKSSESVRVVVRCRPMNGKEKAASYDKVVDVDVKLGQVSVKNPKGTAHEMPKTFTFDAVYDWNAKQFELYDETFRPLVDSVLQGFNGTIFAYGQTGTGKTYTMEGIRGDPEKRGVIPNSFDHIFTHISRSQNQQYLVRASYLEIYQEEIRDLLSKDQTKRLELKERPDTGVYVKDLSSFVTKSVKEIEHVMNVGNQNRSVGATNMNEHSSRSHAIFVITIECSEVGLDGENHIRVGKLNLVDLAGSERQAKTGAQGERLKEATKINLSLSALGNVISALVDGKSTHIPYWDSKLTRLLQDSLGGNAKTVMVANVGPASYNVEETLTTLRYANRAKNIKNKPRVNEDPKDALLREFQEEIARL
As to B1, the “rate of ATP hydrolysis (kinesin ATPase end-point assay, free phosphate) with increasing amounts of microtubules” value was “When compared to wild-type, the mutant motor domain displayed a significantly reduced rate of ATP hydrolysis upon incubation with various concentrations of microtubules”.

Source of the values: patent publication US20180080021.
